Laboratory results published in patent publication US20240358849A1 (SUZHOU FUSE BIOSCIENCES, published 2024).
Residue numbers refer to the chain shown, from its start. Names and notes keep the numbering of the source.

How the values were obtained:
[1] = target: human FAP expressed on cells (HEK 293T-hFAP-E5; ExpiCHO-hFAP) (human) (UniProt Q12884); assay: cell-based or functional assay
[2] = target: T1, human Fibroblast Activation Protein (FAP), soluble antigen (human, UniProt Q12884 26-760, biotinylated when immobilized on streptavidin sensors); assay: BLI per 6.1.3
T1 construct: also called hFAP; biotinylated FAP

[3] = target: T2, IL-2hex, mutant human IL-2 (deltaA1/T3A/F42A/Y45A/L72G/C125S) (human, UniProt P60568 22-153); assay: BLI per 6.1.3; column head IL-2 KD
T2 chain: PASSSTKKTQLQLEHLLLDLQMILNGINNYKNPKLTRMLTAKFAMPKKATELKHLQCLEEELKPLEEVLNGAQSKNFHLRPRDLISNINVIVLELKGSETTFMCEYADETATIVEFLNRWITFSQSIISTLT

[4] = target: T2, IL-2hex, mutant human IL-2 …; assay: Affinity (nM), Table 13B
[5] = target: T1, human Fibroblast Activation Protein …; assay: Affinity (nM), Table 13B
[6] = target: T1, human Fibroblast Activation Protein …; assay: not stated (legend of FIG. 18B)
[7] = target: T2, IL-2hex, mutant human IL-2 …; assay: cell-based or functional assay
[8] = target: T3, human FAP expressed on cells (HEK 293T-hFAP-E5; ExpiCHO-hFAP) (human, UniProt Q12884 1-760); assay: cell-based or functional assay
[9] = target: T1, human Fibroblast Activation Protein …; assay: not stated (legend of FIG. 13A)
[10] = target: T1, human Fibroblast Activation Protein …; assay: BLI; Table 11, antibody variants (Fab/scFv)
[11] = target: T4, human interleukin-2 (IL-2), wild type (human, UniProt P60568 21-153, biotinylated when immobilized); assay: BLI; Table 11 (N.B. = no detectable binding)
T4 construct: also called biotinylated IL-2; IL2 WT
T4 sequence (P60568 21-153): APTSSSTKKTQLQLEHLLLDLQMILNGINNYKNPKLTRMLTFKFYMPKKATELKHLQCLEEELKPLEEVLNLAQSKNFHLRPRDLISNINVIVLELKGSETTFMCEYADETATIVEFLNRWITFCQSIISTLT

[12] = target: T1, human Fibroblast Activation Protein …; assay: BLI (Gator), biotinylated FAP on streptavidin sensor
[13] = target: T1, human Fibroblast Activation Protein …; assay: BLI, small-scale crude lysate
[14] = target: T1, human Fibroblast Activation Protein …; assay: BLI per 6.1.3, human FAP;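 also: biolayer interferometry with immobilized antigen on sensors, antibody association up to 240 s then dissociation up to 420 s, reference-subtracted, global 1:1 fit with unlinked Rmax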
[15] = target: T3, human FAP expressed on cells (HEK …); assay: flow cytometry, 1 µg/mL antibody

B1: immunoconjugate of configuration 3 with IL-2 polypeptide, D002 Fab and 872-70 scFv (Fc fusion, part only; not given: CH1, Fc subunits, linkers, part only)
chain, part: EVQLVESGGGLVQPGGSLRLSCAASGFTFSRYSMSWVRQAPGKGLEWVSYITSTDGTTDYADSVKGRFTISRDNSKNTLYLQMNSLRAEDTAVYYCARSQYGRYYSPDYYFDYWGQGTLVTVSSDIQMTQSPSSLSASVGDRVTITCRASQSISSYLNWYQQKPGKAPKLLIYAASSLQSGVPSRFSGSGSGTDFTLTISSLQPEDFATYYCQQSRTSPYTFGQGTKVEIKRTVAPASSSTKKTQLQLEHLLLDLQMILNGINNYKNPKLTRMLTAKFAMPKKATELKHLQCLEEELKPLEEVLNGAQSKNFHLRPRDLISNINVIVLELKGSETTFMCEYADETATIVEFLNRWITFSQSIISTLT
heavy, part: EVQLVESGGGLVQPGGSLRLSCAASGFTFSRYSMSWVRQAPGKGLEWVSDISSYSTTYYADSVKGRFTISRDNSKNTLYLQMNSLRAEDTAVYYCARSQYGRYYSPDYYFDYWGQGTLVTVSS
light, part: DIQMTQSPSSLSASVGDRVTITCRASQSIGNSLNWYQQKPGKAPKLLIYAASSLQSGVPSRFSGSGSGTDFTLTISSLQPEDFATYYCQQGRRSPFTFGQGTKVEIKRTVA
In the case of B1, the enhancement of EC50, HEK-Blue IL-2 reporter, with FAP-expressing cells [1] is reported as less than 200 fold.

B2: immunoconjugate of configuration 3 with IL-2 polypeptide, D002 Fab and 872-5 scFv (Fc fusion, part only; not given: CH1, Fc subunits, linkers, part only)
chain, part: EVQLVESGGGLVQPGGSLRLSCAASGFTFRGYIMSWVRQAPGKGLEWVSWISPEGSRTGYADSVKGRFTISRDNSKNTLYLQMNSLRAEDTAVYYCARLQYGTWFDYWGQGTLVTVSSDIQMTQSPSSLSASVGDRVTITCRASQSISSYLNWYQQKPGKAPKLLIYAASSLQSGVPSRFSGSGSGTDFTLTISSLQPEDFATYYCQQATLLLPTFGQGTKVEIKRTVAPASSSTKKTQLQLEHLLLDLQMILNGINNYKNPKLTRMLTAKFAMPKKATELKHLQCLEEELKPLEEVLNGAQSKNFHLRPRDLISNINVIVLELKGSETTFMCEYADETATIVEFLNRWITFSQSIISTLT
heavy, part: B1 heavy, part
light, part: B1 light, part
Work on B2 yielded an enhancement of EC50, HEK-Blue IL-2 reporter, with FAP-expressing cells [1] of less than 200 fold.

B3: D029 HV2LV3 (bispecific antibody, V domains shown)
VH: EVQLVESGGGLVQPGGSLRLSCAASGFTFTWFFMSWVRQAPGKGLEWVSWIGPSGLYTDYADSVKGRFTISRDNSKNTLYLQMNSLRAEDTAVYYCARSQYGRYYSPDYYFDYWGQGTLVTVSS
VL: DIQMTQSPSSLSASVGDRVTITCRASGALGFYLNWYQQKPGKAPKLLIYAASSLSSGVPSRFSGSGSGTDFTLTISSLQPEDFATYYCQQGRTPPFTFGQGTKVEIKR
notes: also called Rev1-Q27G:L96F/S55L:S32F; two-in-one antibody within FB-675
B3 was tested, and the Kd [2] was 3.66 nM, the Kd [3] was 217 nM and the Kd [4] was 217 nM. The Kd [5] was 3.7 nM, the Kd [6] was roughly 3.66 nM and the “EC50 of HEK-Blue IL2 assay (pM) with HEK 293T; variant as masking moiety of a configuration 3 immunoconjugate” value [7] was 5300 pM. For the same binder, the “EC50 of HEK-Blue IL2 assay (pM) with HEK 293T-hFAP-E5; variant as masking moiety of a configuration 3 immunoconjugate” value [8] was 31 pM.

B4: scFv70, scFv derived from antibody 872-70 (scFv, V domains shown)
VH: EVQLVESGGGLVQPGGSLRLSCAASGFTFSRYSMSWVRQAPGKGLEWVSYITSTDGTTDYADSVKGRFTISRDNSKNTLYLQMNSLRAEDTAVYYCARSQYGRYYSPDYYFDYWGQGTLVTVSS
VL: B3 VL with G27Q, A28S, L29I, G30S, F31S, S55Q, G91S, P94S, F96Y
notes: Single chain; also called scFv872-70
Work on B4 yielded a Kd [9] of roughly 1 nM.

B5: anti-FAP antibody 872-59 (antibody, V domains shown)
VH: EVQLVESGGGLVQPGGSLRLSCAASGFTFTSYAMSWVRQAPGKGLEWVSSIYSWYGTTSYADSVKGRFTISRDNSKNTLYLQMNSLRAEDTAVYYCARTISYSQYAYGYSFDYWGQGTLVTVSS
VL: B3 VL with G27Q, A28S, L29I, G30S, F31S, S55Q, G91A, R92F, P94S, F96R
notes: also called IgG 59; FAP59
With B5 the Kd [10] was 16 nM, the binding result [11] was “no binding” and the Kd [12] was 15.5 nM. The koff [12] was 0.0056 s⁻¹ and the kon [12] was 360000 M⁻¹ s⁻¹.

B6: anti-FAP antibody 872-70 (antibody, V domains shown)
VH: B4 VH
VL: B3 VL with G27Q, A28S, L29I, G30S, F31S, S55Q, G91S, P94S, F96Y
notes: also called IgG 70; FAP70
In the case of B6, the Kd [10] is reported as less than 1 nM, the binding result [11] is reported as “no binding” and the Kd [12] is reported as less than 1 nM. For the same binder, the kon [12] was 110000 M⁻¹ s⁻¹.

B7: D029 LV4 (Rev1:Q27G:P94Y) (bispecific antibody, V domains shown)
VH: B3 VH with F32S, L56S
VL: B3 VL with P94Y, F96L
In the case of B7, the Kd [13] is reported as roughly 100 nM.

B8: D029 HV5LV1 (bispecific antibody, V domains shown)
VH: B3 VH with T30R, F32A
VL: B3 VL with G27Q, F96L
notes: also called Rev1/S55L:T30R:S32A
B8 was tested, and the Kd [2] was greater than 100 nM, the Kd [3] was 100 nM and the Kd [4] was 331 nM. The Kd [5] was 3.6 nM, the “EC50 of HEK-Blue IL2 assay (pM) with HEK 293T; variant as masking moiety of a configuration 3 immunoconjugate” value [7] was 5630 pM and the “EC50 of HEK-Blue IL2 assay (pM) with HEK 293T-hFAP-E5; variant as masking moiety of a configuration 3 immunoconjugate” value [8] was 41 pM.

B9: D029VH T30R:S55L/LV2 (bispecific antibody, V domains shown)
VH: B3 VH with T30R, F32S
VL: B3 VL with P94Y
notes: also called Rev1:Q27G:P94Y:L96F/S55L:T30R
B9 was tested, and the Kd [13] was roughly 100 nM.

B10: D029 T30R:S55L/LV1 (bispecific antibody, V domains shown)
VH: B3 VH with T30R, F32S
VL: B3 VL with G27Q, F96L
notes: also called Rev1/S55L:T30R
For B10, the Kd [13] was roughly 100 nM.

B11: D029VH T30R:S55L/LV4 (bispecific antibody, V domains shown)
VH: B3 VH with T30R, F32S
VL: B3 VL with P94Y, F96L
notes: also called Rev1:Q27G:P94Y/S55L:T30R
B11 gave a Kd [13] of roughly 100 nM.

B12: D029 VH-S55L:T30R (bispecific antibody, V domains shown)
VH: B3 VH with T30R, F32S
VL: B3 VL with G27Q, A28D, L29G, F31N, A50G, S53T, S55Y, F96L
In the case of B12, the Kd [13] is reported as roughly 100 nM.

B13: D029 HV3LV4 (bispecific antibody, V domains shown)
VH: B3 VH with T30R
VL: B3 VL with P94Y, F96L
notes: also called D029-Rev1:Q27G:P94Y/S55L:T30R:S32F
With B13 the Kd [2] was 1.8 nM, the Kd [3] was 1100 nM and the Kd [4] was 528 nM. For the same binder, the Kd [5] was 2.3 nM, the “EC50 of HEK-Blue IL2 assay (pM) with HEK 293T; variant as masking moiety of a configuration 3 immunoconjugate” value [7] was 4120 pM and the “EC50 of HEK-Blue IL2 assay (pM) with HEK 293T-hFAP-E5; variant as masking moiety of a configuration 3 immunoconjugate” value [8] was 208 pM.

B14: D029-HV1LV4 (bispecific antibody, V domains shown)
VH: B3 VH with F32S
VL: B3 VL with P94Y, F96L
notes: also called Rev1:Q27G:P94Y/S55L; D029HVILV4 (so in the source)
With B14 the Kd [13] was roughly 100 nM.

B15: D029-HV1LV2 (bispecific antibody, V domains shown)
VH: B3 VH with F32S
VL: B3 VL with P94Y
notes: also called Rev1:Q27G:P94Y:L96F/S55L; D029HVILV2 (so in the source)
With B15 the Kd [13] was roughly 100 nM.

B16: anti-FAP antibody 872-5 (antibody, V domains shown)
VH: EVQLVESGGGLVQPGGSLRLSCAASGFTFRGYIMSWVRQAPGKGLEWVSWISPEGSRTGYADSVKGRFTISRDNSKNTLYLQMNSLRAEDTAVYYCARLQYGTWFDYWGQGTLVTVSS
VL: DIQMTQSPSSLSASVGDRVTITCRASQSISSYLNWYQQKPGKAPKLLIYAASSLQSGVPSRFSGSGSGTDFTLTISSLQPEDFATYYCQQATLLLPTFGQGTKVEIKR
notes: monovalent Fab-Fc (knob-in-hole) for KD per 6.1.3; also called IgG 5; FAP5
Binder B16 has a Kd [10] of 7 nM, a Kd [14] of 7.3 nM and a koff [14] of 0.00201 s⁻¹. The kon [14] was 277000 M⁻¹ s⁻¹, the binding result [11] was “no binding” and the Kd [12] was 6.6 nM. For the same binder, the koff [12] was 0.0028 s⁻¹ and the kon [12] was 420000 M⁻¹ s⁻¹.

B17: two-in-one antibody D049 (bispecific antibody, V domains shown)
VH: B16 VH with R30F, G31S, I33W, W50T, E54Y, G55D, R57S, G59A, Q100L
VL: B16 VL with S28I, I29V, S30R, S31T, A91G, T92A, L93Q, L95Q
B17: binds [15].

B18: antibody D003 (antibody, V domains shown)
VH: B5 VH with T30Y, S31T, A33I, Y52G, S53P, W54S, T57D, S59I
VL: B16 VL with A91T, T92R, L93S, L94Y
B18: binds [15].

B19: scFv5, scFv derived from antibody 872-5 (scFv, V domains shown)
VH: B16 VH
VL: B16 VL
notes: Single chain; also called scFv872-5
B19 showed a Kd [9] of roughly 5 nM.
